{"source": "paper PMC3811995", "about": "“Zebavidin - An Avidin-Like Protein from Zebrafish” (PLoS ONE, 2013)", "key": {"[1]": {"biological_target": "T1, zebavidin (Danio rerio, UniProt E7F650)", "T1 sequence (E7F650 31-154)": "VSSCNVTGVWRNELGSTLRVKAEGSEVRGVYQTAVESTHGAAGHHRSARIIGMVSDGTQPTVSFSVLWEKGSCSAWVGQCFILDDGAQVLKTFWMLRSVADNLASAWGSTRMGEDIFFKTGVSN", "experiment": "fluorescence quenching titration ([…] °C)", "type": "binding", "parameters": "gene avd; first 30 amino acids of the ORF replaced with OmpA signal peptide from Bordetella avium (secreted core)"}, "[2]": {"biological_target": "zebavidin (recombinant core, expressed in E. coli) (zebrafish (Danio rerio))", "experiment": "native MS; ESI FT-ICR, 10 µM zebavidin (monomer) in 10 mM ammonium acetate, pH 7, without biotin"}, "[3]": {"biological_target": "zebavidin (recombinant core, expressed in E. coli) (zebrafish (Danio rerio))", "experiment": "native MS; ESI FT-ICR, 10 µM zebavidin in 10 mM ammonium acetate, pH 7, with 30 µM biotin (3-fold molar excess)"}, "[4]": {"biological_target": "zebavidin (recombinant core, expressed in E. coli) (zebrafish (Danio rerio))", "experiment": "SEC; Superdex200 10/300GL, 4 °C, 50 mM sodium phosphate, 2 mM EDTA, pH 7 with 0, 100 or 650 mM NaCl, with and without biotin"}, "[5]": {"biological_target": "zebavidin (recombinant core, expressed in E. coli) (zebrafish (Danio rerio))", "experiment": "crystal structure; zebavidin in complex with biotin, 2.4 Å, space group P2(1)2(1)2, 16 monomers (four homotetramers) in the asymmetric unit"}, "[6]": {"biological_target": "zebavidin (recombinant core, expressed in E. coli) (zebrafish (Danio rerio))", "experiment": "native MS; ESI FT-ICR, 10 µM zebavidin in 500 mM ammonium acetate, in the absence and presence of 30 µM biotin"}, "[7]": {"biological_target": "T1, zebavidin", "experiment": "crystal structure at […] Å; direct and competitive ITC ([…] °C); [3H]biotin dissociation; native MS; DSC", "type": "binding", "parameters": "gene avd; first 30 amino acids of the ORF replaced with OmpA signal peptide from Bordetella avium (secreted core); homotetramer"}, "[8]": {"biological_target": "T1, zebavidin", "experiment": "ITC ([…] °C)", "type": "binding", "parameters": "gene avd; first 30 amino acids of the ORF replaced with OmpA signal peptide from Bordetella avium (secreted core)"}}, "note": "“And” between values parts separate entries of the source, which are not always exact repeats. Identical values can stand only once.", "data": [{"compound": "ArcDia BF560", "values": [{"measurement": "Kd", "setting": "[1]", "result": 140, "unit": "nM"}]}, {"compound": "zebavidin (recombinant core, expressed in E. coli) (natural protein)", "values": [{"measurement": "stoichiometry N", "setting": "[2]", "result": "2 and 4"}, {"measurement": "stoichiometry N", "setting": "[3]", "result": 4}, {"measurement": "stoichiometry N", "setting": "[4]", "result": 4}, {"measurement": "stoichiometry N", "setting": "[5]", "result": 4}, {"measurement": "stoichiometry N", "setting": "[6]", "result": 4}]}, {"compound": "O=C(O)CCCC[C@@H]1SC[C@@H]2NC(=O)N[C@@H]21", "note": "[BTN, biotin]", "values": [{"measurement": "Kd", "setting": "[7]", "result": "4.8/4.4 x10^-9 M"}]}, {"compound": "C[C@@H]1NC(=O)N[C@@H]1CCCCCC(=O)O", "note": "[desthiobiotin]", "values": [{"measurement": "Kd", "setting": "[8]", "result": "660/700 x10^-9 M"}]}]}
